Experimental findings from FireProtDB (doi:10.1016/j.jmb.2003.10.041) are described below.

Sequences and labels used below:
B1: Bacteriorhodopsin, P02945 (parent)
chain: MLELLPTAVEGVSQAQITGRPEWIWLALGTALMGLGTLYFLVKGMGVSDPDAKKFYAITTLVPAIAFTMYLSMLLGYGLTMVPFGGEQNPIYWARYADWLFTTPLLLLDLALLVDADQGTILALVGADGIMIGTGLVGALTKVYSYRFVWWAISTAAMLYILYVLFFGFTSKAESMRPEVASTFKVLRNVTVVLWSAYPVVWLIGSEGAGIVPLNIETLLFMVLDVSAKVGFGLILLRSRAIFGEAEAPEPSAGDGAAATSD

In this data set the parent is B1. Conditions: Halobacterium salinarum (strain ATCC 700922 / JCM 11081 / NRC-1); pH 6; 25 °C; SDS; Absorbance; sodium phosphate 10 mM; reversible: yes (90%); structure 2BRD; whole UniProt chain shown.
For MLELLPTAVEGVSQAQITGRPEWIWLALGTALMGLGTLYFLVKGMGVSDPDAKKFYAITALVPAIAFTMYLSMLLGYGLTMVPFGGEQNPIYWARYADWLFTTPLLLLDLALLVDADQGTILALVGADGIMIGTGLVGALTKVYSYRFVWWAISTAAMLYILYVLFFGFTSKAESMRPEVASTFKVLRNVTVVLWSAYPVVWLIGSEGAGIVPLNIETLLFMVLDVSAKVGFGLILLRSRAIFGEAEAPEPSAGDGAAATSD [T60A], the “ddG of mutation (higher = less stable)” value was 4.18 kJ/mol.

With MLELLPTAVEGVSQAQITGRPEWIWLALGTALMGLGTLYFLVKGMGVSAPDAKKFYAITTLVPAIAFTMYLSMLLGYGLTMVPFGGEQNPIYWARYADWLFTTPLLLLDLALLVDADQGTILALVGADGIMIGTGLVGALTKVYSYRFVWWAISTAAMLYILYVLFFGFTSKAESMRPEVASTFKVLRNVTVVLWSAYPVVWLIGSEGAGIVPLNIETLLFMVLDVSAKVGFGLILLRSRAIFGEAEAPEPSAGDGAAATSD [D49A], the “ddG of mutation (higher = less stable)” value was 3.77 kJ/mol.

As for MLELLPTAVEGVSQAQITGRPEWIWLALGTALMGLGTLYFLVKGMGVSDPDAAKFYAITTLVPAIAFTMYLSMLLGYGLTMVPFGGEQNPIYWARYADWLFTTPLLLLDLALLVDADQGTILALVGADGIMIGTGLVGALTKVYSYRFVWWAISTAAMLYILYVLFFGFTSKAESMRPEVASTFKVLRNVTVVLWSAYPVVWLIGSEGAGIVPLNIETLLFMVLDVSAKVGFGLILLRSRAIFGEAEAPEPSAGDGAAATSD [K53A], the “ddG of mutation (higher = less stable)” value was determined as 1.26 kJ/mol.

In the case of MLELLPTAVEGVSQAQITGRPEWIWLALGTALMGLGTLYFLVKGMGVSDPDAKKFAAITTLVPAIAFTMYLSMLLGYGLTMVPFGGEQNPIYWARYADWLFTTPLLLLDLALLVDADQGTILALVGADGIMIGTGLVGALTKVYSYRFVWWAISTAAMLYILYVLFFGFTSKAESMRPEVASTFKVLRNVTVVLWSAYPVVWLIGSEGAGIVPLNIETLLFMVLDVSAKVGFGLILLRSRAIFGEAEAPEPSAGDGAAATSD [Y56A], the “ddG of mutation (higher = less stable)” value is 5.44 kJ/mol.

With MLELLPTAVEGVSQAQITGRPEWIWLALGTALMGLGTLYFLVKGMGVSDPDAKAFYAITTLVPAIAFTMYLSMLLGYGLTMVPFGGEQNPIYWARYADWLFTTPLLLLDLALLVDADQGTILALVGADGIMIGTGLVGALTKVYSYRFVWWAISTAAMLYILYVLFFGFTSKAESMRPEVASTFKVLRNVTVVLWSAYPVVWLIGSEGAGIVPLNIETLLFMVLDVSAKVGFGLILLRSRAIFGEAEAPEPSAGDGAAATSD [K54A], the “ddG of mutation (higher = less stable)” value worked out at 6.69 kJ/mol.

In the case of MLELLPTAVEGVSQAQITGRPEWIWLALGTALMGLGTLYFLVKGMGVSDPDAKKFYAITTAVPAIAFTMYLSMLLGYGLTMVPFGGEQNPIYWARYADWLFTTPLLLLDLALLVDADQGTILALVGADGIMIGTGLVGALTKVYSYRFVWWAISTAAMLYILYVLFFGFTSKAESMRPEVASTFKVLRNVTVVLWSAYPVVWLIGSEGAGIVPLNIETLLFMVLDVSAKVGFGLILLRSRAIFGEAEAPEPSAGDGAAATSD [L61A], the “ddG of mutation (higher = less stable)” value is 0.418 kJ/mol.

Regarding MLELLPTAVEGVSQAQITGRPEWIWLALGTALMGLGTLYFLVKGMGVSDPDAKKAYAITTLVPAIAFTMYLSMLLGYGLTMVPFGGEQNPIYWARYADWLFTTPLLLLDLALLVDADQGTILALVGADGIMIGTGLVGALTKVYSYRFVWWAISTAAMLYILYVLFFGFTSKAESMRPEVASTFKVLRNVTVVLWSAYPVVWLIGSEGAGIVPLNIETLLFMVLDVSAKVGFGLILLRSRAIFGEAEAPEPSAGDGAAATSD [F55A], the “ddG of mutation (higher = less stable)” value is 6.69 kJ/mol.

In the case of MLELLPTAVEGVSQAQITGRPEWIWLALGTALMGLGTLYFLVKGMGVSDPDAKKFYAITTLAPAIAFTMYLSMLLGYGLTMVPFGGEQNPIYWARYADWLFTTPLLLLDLALLVDADQGTILALVGADGIMIGTGLVGALTKVYSYRFVWWAISTAAMLYILYVLFFGFTSKAESMRPEVASTFKVLRNVTVVLWSAYPVVWLIGSEGAGIVPLNIETLLFMVLDVSAKVGFGLILLRSRAIFGEAEAPEPSAGDGAAATSD [V62A], the “ddG of mutation (higher = less stable)” value is -2.93 kJ/mol.

On to MLELLPTAVEGVSQAQITGRPEWIWLALGTALMGLGTLYFLVKGMGVSDPAAKKFYAITTLVPAIAFTMYLSMLLGYGLTMVPFGGEQNPIYWARYADWLFTTPLLLLDLALLVDADQGTILALVGADGIMIGTGLVGALTKVYSYRFVWWAISTAAMLYILYVLFFGFTSKAESMRPEVASTFKVLRNVTVVLWSAYPVVWLIGSEGAGIVPLNIETLLFMVLDVSAKVGFGLILLRSRAIFGEAEAPEPSAGDGAAATSD [D51A], for which the “ddG of mutation (higher = less stable)” value was determined as 2.09 kJ/mol.

Turning to MLELLPTAVEGVSQAQITGRPEWIWLALGTALMGLGTLYFLVKGMGVSDPDAKKFYAIATLVPAIAFTMYLSMLLGYGLTMVPFGGEQNPIYWARYADWLFTTPLLLLDLALLVDADQGTILALVGADGIMIGTGLVGALTKVYSYRFVWWAISTAAMLYILYVLFFGFTSKAESMRPEVASTFKVLRNVTVVLWSAYPVVWLIGSEGAGIVPLNIETLLFMVLDVSAKVGFGLILLRSRAIFGEAEAPEPSAGDGAAATSD [T59A], the “ddG of mutation (higher = less stable)” value was found to be 9.2 kJ/mol.

For the variant MLELLPTAVEGVSQAQITGRPEWIWLALGTALMGLGTLYFLVKGMGVSDPDAKKFYAATTLVPAIAFTMYLSMLLGYGLTMVPFGGEQNPIYWARYADWLFTTPLLLLDLALLVDADQGTILALVGADGIMIGTGLVGALTKVYSYRFVWWAISTAAMLYILYVLFFGFTSKAESMRPEVASTFKVLRNVTVVLWSAYPVVWLIGSEGAGIVPLNIETLLFMVLDVSAKVGFGLILLRSRAIFGEAEAPEPSAGDGAAATSD [I58A], the “ddG of mutation (higher = less stable)” value is 7.95 kJ/mol.

For MLELLPTAVEGVSQAQITGRPEWIWLALGTALMGLGTLYFLVKGMGVSDADAKKFYAITTLVPAIAFTMYLSMLLGYGLTMVPFGGEQNPIYWARYADWLFTTPLLLLDLALLVDADQGTILALVGADGIMIGTGLVGALTKVYSYRFVWWAISTAAMLYILYVLFFGFTSKAESMRPEVASTFKVLRNVTVVLWSAYPVVWLIGSEGAGIVPLNIETLLFMVLDVSAKVGFGLILLRSRAIFGEAEAPEPSAGDGAAATSD [P50A], the “ddG of mutation (higher = less stable)” value was determined as 0.837 kJ/mol.
